# In patent publication US20250388702A1 (Dana-Farber, published 2025):
# B1: KIR3DL3 mAb 574.2.2F11.2.7.4 (antibody, IgG2b, V domains shown)
# VH: DVQLVESGGGLVQPGGSRKLSCAASGFTFSYFGMHWVRRAPEKGLEWVAFISSDSTTIYYTDTVKGRFTISRDNPKNTLFLQMTSLRSEDTAIYYCARFYDGAMDYWGQGTSVTVST
# VL: DIVMTQSQKFMSTSVGDRVSITCKASQSVRTAVAWYQQKPGQSPKVLIYLASNRHTGVPDRFTGSGSGTDFTLTISNVQSEDLADYFCLQHWNYPLTFGAGTKLELK
# notes: Parental mouse hybridoma antibody, IgG2b; only variable domains given; also called AVS-3703
# B2: KIR3DL3 mAb 574.2.8F7.1.7.4 (antibody, IgG1, V domains shown)
# VH: DVKLVESGGGLVKPGGSLKLSCAASGFTFSSYCMSWVRQTPEKRLEWVATISSGGNYIYYPDSVKGRFTISRDIAKNTLYLQMSSLKSEDTAMYYCTRGGYDERYFDYWGQGTILTVSS
# VL: DIQMTQSPASLSASVGETVTITCRASENIYSYLAWYQQKQGKSPQLLVYNAKTLTEGMPSRFSGSGSGTQFSLRINSLQPEDFGSYYCQHHHGTPRTFGGGTKLEIK
# notes: Mouse hybridoma antibody, IgG1; only variable domains given; also called AVS-3700
# Target: T1, Human KIR3DL3 (human, UniProt Q8N743 26-410)
# T1 construct: also called Killer cell immunoglobulin-like receptor 3DL3
# Experiment: flow cytometry, KIR3DL3-transfected 300.19 cells
# T1 sequence (Q8N743 26-410 H321N limits assumed): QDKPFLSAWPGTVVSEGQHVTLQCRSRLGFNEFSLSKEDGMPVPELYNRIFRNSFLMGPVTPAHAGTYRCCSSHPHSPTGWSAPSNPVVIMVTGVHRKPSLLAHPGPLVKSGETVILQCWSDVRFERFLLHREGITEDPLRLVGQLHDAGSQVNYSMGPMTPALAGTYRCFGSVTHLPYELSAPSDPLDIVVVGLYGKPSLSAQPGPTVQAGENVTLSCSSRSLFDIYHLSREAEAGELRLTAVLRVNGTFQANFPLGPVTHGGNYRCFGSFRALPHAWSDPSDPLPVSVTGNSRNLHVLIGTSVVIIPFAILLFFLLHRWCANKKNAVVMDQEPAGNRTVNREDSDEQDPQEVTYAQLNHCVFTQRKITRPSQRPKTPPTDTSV
row,Binder,EC50 [µg/mL]
1,B1,0.43
2,B2,1

# Target: T2, Human KIR3DL3, Sino Biological Cat#: 16055-H08H (human, UniProt Q8N743 26-322)
# T2 construct: Bought soluble antigen; also called KIR3DL3 (Octet antigen)
# Experiment: BLI (Octet RED96), antibody captured on the sensor, antigen in solution, 1:1 model
# Description: Binding experiments were performed on Octat Red af 25″° C. The human antibodies were loaded onto Anti-higG Fe Capture biosensors and the mouse antibodies were loaded onto Anti-migG Fe Capture biosensors both for 300 seconds. The ligand loaded sensors were dipped into a 3-fold series dilution (starting at 300 nad) of the antigens (PD-1 and KIR3DL3) for 240 seconds followed by dissociation for 400 seconds. Kinetic constanta were calculated using a monovalent (1:1) binding model Antigen: Haman PD1, Sino Biological Cat #: HPLC-10377-HOSH.
# T2 sequence (Q8N743 other isoform, or with tags, fused parts or gaps H08H H08H limits assumed): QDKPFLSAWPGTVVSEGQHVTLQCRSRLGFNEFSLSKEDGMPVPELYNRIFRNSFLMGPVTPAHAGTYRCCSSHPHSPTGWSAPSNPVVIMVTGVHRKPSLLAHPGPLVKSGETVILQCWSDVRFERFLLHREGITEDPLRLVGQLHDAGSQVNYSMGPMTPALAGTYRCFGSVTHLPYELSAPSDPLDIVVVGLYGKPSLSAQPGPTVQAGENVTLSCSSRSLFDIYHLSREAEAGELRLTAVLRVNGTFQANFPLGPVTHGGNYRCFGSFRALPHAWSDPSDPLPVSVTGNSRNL
Binder,Kd [nM],koff [s⁻¹],kon [M⁻¹ s⁻¹]
B1,0.506,0.000118,233000

# Target: T1, Human KIR3DL3
# Experiment: flow cytometry; blockade of HHLA2-mIgG2a binding to KIR3DL3-transfected 300.19 cells
# Description: (§1) The indicated concentrations of KIR3DL3 mAbs were pre-incubated with KIR3DL3 transfected 300.19 cells for 30 minutes at 4° C. […] EC50 and IC50 analysis were conducted using GraphPad Prism®.
row,Binder,IC50 [µg/mL]
1,B1,0.16
2,B2,27.5

# Target: T1, Human KIR3DL3
# Experiment: flow cytometry, KIR3DL3-transfected 300.19 cells
# Remark: another data set of the same source
row,Binder,Kd [µg/mL]
1,B1,0.43
2,B2,1

# Target: T1, Human KIR3DL3
# Experiment: flow cytometry; blockade of HHLA2-mIgG2a binding to KIR3DL3-transfected cells
# Description: as §1
row,Binder,IC50 [µg/mL]
1,B1,0.42
2,B2,> 10

# Target: T1, Human KIR3DL3
# Experiment: cell-based or functional assay
Binder,"Jurkat IL-2 Luciferase Activation, EC50 [µg/mL]","Jurkat IL-2 Luciferase, Fold Activation [fold]"
B1,1.25,17.1
B2,–,1.2

# Target: T3, KIR2DL4 (UniProt Q99706 22-377, limits assumed)
# T3 construct: whole, on cells
# Experiment: HEK293 cell microarray
# Description: (§2) Replicate microarray slides expressing a complete KIR family cDNA panel were fixed and blocked with buffer containing PBS/0.5% BSA and incubated for 1 hour at room temperature with individual KIR3DL3 mAb hybridoma supernatants at 1:5, 1:25 and 1:250 dilutions in PBS/0.1% BSA. Cell arrays were washed with PBS and incubated for 1 hour at room temperature in PBS/0.1% BSA containing AF647-conjugated goat anti-mouse IgG (H+L) (Life Technologies, A21235). Slides were washed with PBS, dried, and imaged for ZsGreen1 and AF647 fluorescence.
# as §2, with “In Table 4, replicate” for “Replicate”, “the” for “a complete”, “panel (as in FIG. 1A, FIG. 2B, and FIG. 2C)” for “panel”
# T3 sequence (Q99706 22-377 limits assumed): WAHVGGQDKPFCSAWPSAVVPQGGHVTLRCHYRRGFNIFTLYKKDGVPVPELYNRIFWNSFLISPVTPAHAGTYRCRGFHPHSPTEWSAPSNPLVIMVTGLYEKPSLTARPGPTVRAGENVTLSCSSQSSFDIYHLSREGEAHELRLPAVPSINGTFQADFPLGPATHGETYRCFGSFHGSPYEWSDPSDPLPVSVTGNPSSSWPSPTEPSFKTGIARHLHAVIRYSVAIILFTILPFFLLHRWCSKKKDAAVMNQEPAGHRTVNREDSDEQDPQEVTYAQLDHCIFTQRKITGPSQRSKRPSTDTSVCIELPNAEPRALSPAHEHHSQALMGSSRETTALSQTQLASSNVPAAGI
row,Binder,binding result
1,B1,"no binding (tested: supernatant 1:5, 1:25, 1:250)"
2,B2,"no binding (tested: supernatant 1:5, 1:25, 1:250)"

# Target: T4, KIR3DL1 (UniProt P43629 22-444, limits assumed)
# T4 construct: whole, on cells
# Experiment: HEK293 cell microarray
# Description: as §2
# as §2, with “In Table 4, replicate” for “Replicate”, “the” for “a complete”, “panel (as in FIG. 1A, FIG. 2B, and FIG. 2C)” for “panel”
# T4 sequence (P43629 22-444 limits assumed): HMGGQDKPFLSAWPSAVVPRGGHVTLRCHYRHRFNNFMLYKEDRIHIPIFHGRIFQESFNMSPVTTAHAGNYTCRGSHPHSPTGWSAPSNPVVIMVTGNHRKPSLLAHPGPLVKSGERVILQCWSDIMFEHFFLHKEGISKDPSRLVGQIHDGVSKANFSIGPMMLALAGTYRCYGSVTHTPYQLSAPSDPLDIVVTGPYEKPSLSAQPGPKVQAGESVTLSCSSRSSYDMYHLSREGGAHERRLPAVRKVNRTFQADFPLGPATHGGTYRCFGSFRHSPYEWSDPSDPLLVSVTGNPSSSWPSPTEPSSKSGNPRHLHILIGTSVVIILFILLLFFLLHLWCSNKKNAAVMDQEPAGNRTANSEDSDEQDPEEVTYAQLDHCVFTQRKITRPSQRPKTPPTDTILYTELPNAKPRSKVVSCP
row,Binder,binding result
1,B1,"no binding (tested: supernatant 1:5, 1:25, 1:250)"
2,B2,"no binding (tested: supernatant 1:5, 1:25, 1:250)"

# Target: T5, KIR2DS2 (UniProt P43631 22-304, limits assumed)
# T5 construct: whole, on cells
# Experiment: HEK293 cell microarray
# Description: as §2
# as §2, with “In Table 4, replicate” for “Replicate”, “the” for “a complete”, “panel (as in FIG. 1A, FIG. 2B, and FIG. 2C)” for “panel”
# T5 sequence (P43631 22-304 limits assumed): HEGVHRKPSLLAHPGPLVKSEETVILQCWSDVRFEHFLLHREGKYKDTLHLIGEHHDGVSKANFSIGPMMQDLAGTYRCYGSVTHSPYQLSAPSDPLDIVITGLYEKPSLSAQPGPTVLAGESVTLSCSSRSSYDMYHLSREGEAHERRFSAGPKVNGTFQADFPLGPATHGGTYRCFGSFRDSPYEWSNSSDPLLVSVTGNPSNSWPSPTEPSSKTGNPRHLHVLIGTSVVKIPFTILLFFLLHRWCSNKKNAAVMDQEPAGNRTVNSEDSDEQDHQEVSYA
row,Binder,binding result
1,B1,"no binding (tested: supernatant 1:5, 1:25, 1:250)"
2,B2,"no binding (tested: supernatant 1:5, 1:25, 1:250)"

# Target: T6, KIR3DS1 (UniProt Q14943 22-382, limits assumed)
# T6 construct: whole, on cells
# Experiment: HEK293 cell microarray
# Description: as §2
# as §2, with “In Table 4, replicate” for “Replicate”, “the” for “a complete”, “panel (as in FIG. 1A, FIG. 2B, and FIG. 2C)” for “panel”
# T6 sequence (Q14943 22-382 limits assumed): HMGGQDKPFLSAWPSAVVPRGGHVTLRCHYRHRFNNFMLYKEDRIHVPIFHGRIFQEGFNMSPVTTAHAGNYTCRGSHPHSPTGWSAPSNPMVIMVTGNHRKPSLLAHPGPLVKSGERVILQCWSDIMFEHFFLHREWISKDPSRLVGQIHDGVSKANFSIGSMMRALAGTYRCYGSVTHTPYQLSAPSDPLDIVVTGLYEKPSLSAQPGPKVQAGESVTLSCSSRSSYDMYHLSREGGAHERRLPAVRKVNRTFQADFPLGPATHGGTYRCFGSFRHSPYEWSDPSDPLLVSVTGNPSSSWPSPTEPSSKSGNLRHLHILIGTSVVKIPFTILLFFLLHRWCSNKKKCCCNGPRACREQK
row,Binder,binding result
1,B1,"no binding (tested: supernatant 1:5, 1:25, 1:250)"
2,B2,"no binding (tested: supernatant 1:5, 1:25, 1:250)"

# Target: T7, KIR2DS3 (UniProt Q14952 22-304, limits assumed)
# T7 construct: whole, on cells
# Experiment: HEK293 cell microarray
# Description: as §2
# as §2, with “In Table 4, replicate” for “Replicate”, “the” for “a complete”, “panel (as in FIG. 1A, FIG. 2B, and FIG. 2C)” for “panel”
# T7 sequence (Q14952 22-304 limits assumed): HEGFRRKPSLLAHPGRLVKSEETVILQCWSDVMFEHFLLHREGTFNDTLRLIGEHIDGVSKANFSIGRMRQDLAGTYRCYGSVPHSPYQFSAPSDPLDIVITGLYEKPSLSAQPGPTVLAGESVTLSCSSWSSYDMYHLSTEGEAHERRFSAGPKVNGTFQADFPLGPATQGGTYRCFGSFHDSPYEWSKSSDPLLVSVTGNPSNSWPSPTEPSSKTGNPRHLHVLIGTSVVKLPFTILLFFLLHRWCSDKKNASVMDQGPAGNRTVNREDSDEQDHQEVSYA
row,Binder,binding result
1,B1,"no binding (tested: supernatant 1:5, 1:25, 1:250)"
2,B2,"no binding (tested: supernatant 1:5, 1:25, 1:250)"

# Target: T8, KIR2DL5A (UniProt Q8N109 22-375, limits assumed)
# T8 construct: whole, on cells
# Experiment: HEK293 cell microarray
# Description: as §2
# as §2, with “In Table 4, replicate” for “Replicate”, “the” for “a complete”, “panel (as in FIG. 1A, FIG. 2B, and FIG. 2C)” for “panel”
# T8 sequence (Q8N109 22-375 limits assumed): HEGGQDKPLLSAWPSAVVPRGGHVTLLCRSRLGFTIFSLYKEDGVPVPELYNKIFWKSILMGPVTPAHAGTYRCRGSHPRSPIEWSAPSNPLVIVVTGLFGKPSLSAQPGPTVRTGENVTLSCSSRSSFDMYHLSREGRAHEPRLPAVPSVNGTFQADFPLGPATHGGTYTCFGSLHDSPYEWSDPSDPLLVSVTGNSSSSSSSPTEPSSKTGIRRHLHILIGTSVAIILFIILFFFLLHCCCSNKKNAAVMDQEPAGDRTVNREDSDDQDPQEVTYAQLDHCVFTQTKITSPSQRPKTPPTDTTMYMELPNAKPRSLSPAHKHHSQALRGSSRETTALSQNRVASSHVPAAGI
row,Binder,binding result
1,B2,"no binding (tested: supernatant 1:5, 1:25, 1:250)"

# Target: T9, KIR2DS5 (UniProt Q14953 22-304, limits assumed)
# T9 construct: whole, on cells
# Experiment: HEK293 cell microarray
# Description: as §2
# as §2, with “In Table 4, replicate” for “Replicate”, “the” for “a complete”, “panel (as in FIG. 1A, FIG. 2B, and FIG. 2C)” for “panel”
# T9 sequence (Q14953 22-304 limits assumed): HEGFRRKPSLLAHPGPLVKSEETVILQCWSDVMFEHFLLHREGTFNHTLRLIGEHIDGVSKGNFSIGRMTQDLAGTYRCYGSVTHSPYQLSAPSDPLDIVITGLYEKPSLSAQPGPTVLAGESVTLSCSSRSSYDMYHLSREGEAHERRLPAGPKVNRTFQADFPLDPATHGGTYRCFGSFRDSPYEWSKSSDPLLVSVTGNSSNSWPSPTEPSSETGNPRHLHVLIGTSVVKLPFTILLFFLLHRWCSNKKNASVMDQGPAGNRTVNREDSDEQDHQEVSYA
row,Binder,binding result
1,B1,"no binding (tested: supernatant 1:5, 1:25, 1:250)"
2,B2,"no binding (tested: supernatant 1:5, 1:25, 1:250)"

# Target: T10, KIR2DL5B (UniProt Q8NHK3 22-375, limits assumed)
# T10 construct: whole, on cells
# Experiment: HEK293 cell microarray
# Description: as §2
# as §2, with “In Table 4, replicate” for “Replicate”, “the” for “a complete”, “panel (as in FIG. 1A, FIG. 2B, and FIG. 2C)” for “panel”
# T10 sequence (Q8NHK3 22-375 limits assumed): as the sequence (Q8N109 22-375 limits assumed) above, with N152D, G174S counted along it
row,Binder,binding result
1,B1,"no binding (tested: supernatant 1:5, 1:25, 1:250)"
2,B2,"no binding (tested: supernatant 1:5, 1:25, 1:250)"

# Target: T11, KIR3DL2 (UniProt P43630 22-455, limits assumed)
# T11 construct: whole, on cells
# Experiment: HEK293 cell microarray
# Description: as §2
# as §2, with “In Table 4, replicate” for “Replicate”, “the” for “a complete”, “panel (as in FIG. 1A, FIG. 2B, and FIG. 2C)” for “panel”
# T11 sequence (P43630 22-455 limits assumed): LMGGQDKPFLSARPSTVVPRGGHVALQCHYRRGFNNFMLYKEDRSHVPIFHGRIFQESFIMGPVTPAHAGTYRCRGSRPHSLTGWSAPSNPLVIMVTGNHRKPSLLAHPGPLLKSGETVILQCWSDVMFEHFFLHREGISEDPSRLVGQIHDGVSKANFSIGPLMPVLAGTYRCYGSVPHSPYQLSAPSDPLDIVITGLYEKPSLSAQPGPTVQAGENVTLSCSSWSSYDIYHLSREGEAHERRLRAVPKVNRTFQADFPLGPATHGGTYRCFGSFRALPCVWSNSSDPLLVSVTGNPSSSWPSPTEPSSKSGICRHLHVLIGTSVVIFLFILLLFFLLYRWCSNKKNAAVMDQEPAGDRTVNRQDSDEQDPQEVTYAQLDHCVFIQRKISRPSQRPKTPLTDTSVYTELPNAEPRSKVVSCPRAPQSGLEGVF
row,Binder,binding result
1,B1,"no binding (tested: supernatant 1:5, 1:25, 1:250)"
2,B2,"no binding (tested: supernatant 1:5, 1:25, 1:250)"

# Target: T12, KIR2DL1 (UniProt P43626 22-348, limits assumed)
# T12 construct: whole, on cells
# Experiment: HEK293 cell microarray
# Description: as §2
# as §2, with “In Table 4, replicate” for “Replicate”, “the” for “a complete”, “panel (as in FIG. 1A, FIG. 2B, and FIG. 2C)” for “panel”
# T12 sequence (P43626 22-348 limits assumed): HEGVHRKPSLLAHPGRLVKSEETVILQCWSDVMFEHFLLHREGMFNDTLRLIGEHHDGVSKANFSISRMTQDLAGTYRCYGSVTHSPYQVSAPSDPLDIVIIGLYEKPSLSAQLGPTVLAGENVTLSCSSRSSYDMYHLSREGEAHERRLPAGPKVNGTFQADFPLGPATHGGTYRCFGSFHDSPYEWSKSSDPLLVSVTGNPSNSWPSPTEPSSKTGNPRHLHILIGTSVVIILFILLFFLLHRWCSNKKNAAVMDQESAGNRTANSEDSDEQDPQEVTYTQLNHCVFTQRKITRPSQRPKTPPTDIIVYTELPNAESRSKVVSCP
row,Binder,binding result
1,B1,"no binding (tested: supernatant 1:5, 1:25, 1:250)"
2,B2,"no binding (tested: supernatant 1:5, 1:25, 1:250)"

# Target: T13, KIR2DL2 (UniProt P43627 22-348, limits assumed)
# T13 construct: whole, on cells
# Experiment: HEK293 cell microarray
# Description: as §2
# as §2, with “In Table 4, replicate” for “Replicate”, “the” for “a complete”, “panel (as in FIG. 1A, FIG. 2B, and FIG. 2C)” for “panel”
# T13 sequence (P43627 22-348 limits assumed): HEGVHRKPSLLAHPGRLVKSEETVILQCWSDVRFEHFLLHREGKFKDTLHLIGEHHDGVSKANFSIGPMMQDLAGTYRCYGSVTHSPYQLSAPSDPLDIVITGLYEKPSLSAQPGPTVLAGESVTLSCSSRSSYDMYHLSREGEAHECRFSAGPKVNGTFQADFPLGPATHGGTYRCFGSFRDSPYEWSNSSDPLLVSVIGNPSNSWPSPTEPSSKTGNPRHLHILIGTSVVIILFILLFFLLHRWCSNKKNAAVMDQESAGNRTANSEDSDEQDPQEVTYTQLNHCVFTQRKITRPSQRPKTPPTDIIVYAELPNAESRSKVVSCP
row,Binder,binding result
1,B1,"no binding (tested: supernatant 1:5, 1:25, 1:250)"
2,B2,"no binding (tested: supernatant 1:5, 1:25, 1:250)"

# Target: T14, KIR2DL3 (UniProt P43628 22-341, limits assumed)
# T14 construct: whole, on cells
# Experiment: HEK293 cell microarray
# Description: as §2
# as §2, with “In Table 4, replicate” for “Replicate”, “the” for “a complete”, “panel (as in FIG. 1A, FIG. 2B, and FIG. 2C)” for “panel”
# T14 sequence (P43628 22-341 limits assumed): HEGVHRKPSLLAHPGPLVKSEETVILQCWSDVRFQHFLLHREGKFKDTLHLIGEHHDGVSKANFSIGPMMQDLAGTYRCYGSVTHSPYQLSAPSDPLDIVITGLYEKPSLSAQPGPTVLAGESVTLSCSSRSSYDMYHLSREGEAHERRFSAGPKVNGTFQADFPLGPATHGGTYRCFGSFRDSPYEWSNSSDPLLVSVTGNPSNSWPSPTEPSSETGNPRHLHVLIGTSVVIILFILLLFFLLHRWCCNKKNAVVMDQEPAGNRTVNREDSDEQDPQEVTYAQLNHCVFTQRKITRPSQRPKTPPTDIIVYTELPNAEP
row,Binder,binding result
1,B1,"no binding (tested: supernatant 1:5, 1:25, 1:250)"
2,B2,"no binding (tested: supernatant 1:5, 1:25, 1:250)"

# Target: T15, KIR2DS1 (UniProt Q14954 22-304, limits assumed)
# T15 construct: whole, on cells
# Experiment: HEK293 cell microarray
# Description: as §2
# as §2, with “In Table 4, replicate” for “Replicate”, “the” for “a complete”, “panel (as in FIG. 1A, FIG. 2B, and FIG. 2C)” for “panel”
# T15 sequence (Q14954 22-304 limits assumed): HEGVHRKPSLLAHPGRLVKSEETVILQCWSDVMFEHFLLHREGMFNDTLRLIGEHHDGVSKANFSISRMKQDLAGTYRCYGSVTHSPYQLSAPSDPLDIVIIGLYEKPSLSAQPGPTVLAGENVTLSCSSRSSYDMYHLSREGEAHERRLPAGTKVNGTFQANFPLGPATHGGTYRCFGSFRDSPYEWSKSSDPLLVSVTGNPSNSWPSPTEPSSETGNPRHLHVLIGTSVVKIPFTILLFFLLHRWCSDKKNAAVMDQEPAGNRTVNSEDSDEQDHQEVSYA
row,Binder,binding result
1,B1,"no binding (tested: supernatant 1:5, 1:25, 1:250)"
2,B2,"no binding (tested: supernatant 1:5, 1:25, 1:250)"
